Key:
[1] = biological target: DENV1 PVP159 strain recombinant E protein ectodomain (residues 1-394) (dengue virus serotype 1, strain PVP159); experiment: dynamic light scattering; recombinant E proteins in 20 mM Tris pH 8.0, 200 mM NaCl, 0.025% Tween-20
[2] = biological target: human monoclonal antibody (HMAb) 1C19, IgG (human); experiment: BLI
[3] = biological target: DENV1 WestPac74 strain recombinant E protein ectodomain (residues 1-394) (dengue virus serotype 1, strain WestPac 74); experiment: dynamic light scattering; recombinant E proteins in 20 mM Tris pH 8.0, 200 mM NaCl, 0.025% Tween-20
[4] = biological target: DENV2 NGC strain recombinant E protein ectodomain (residues 1-394) (dengue virus serotype 2, strain NGC); experiment: as above
[5] = biological target: DENV2 PVP94/07 strain recombinant E protein ectodomain (residues 1-394) (dengue virus serotype 2, strain PVP94/07); experiment: as above
[6] = biological target: E protein on DENV1 strain WestPac 74 virus particles (dengue virus serotype 1, strain WestPac 74); experiment: cryo-EM structure

Sequence of human monoclonal antibody (HMAb) 1C19, IgG (human) (heavy, as listed by the source, chain 1 of 2): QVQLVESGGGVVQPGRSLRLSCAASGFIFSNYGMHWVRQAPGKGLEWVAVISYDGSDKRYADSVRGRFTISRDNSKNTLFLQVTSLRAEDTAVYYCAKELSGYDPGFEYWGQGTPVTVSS
Sequence of human monoclonal antibody (HMAb) 1C19, IgG (human) (light, as listed by the source, chain 2 of 2): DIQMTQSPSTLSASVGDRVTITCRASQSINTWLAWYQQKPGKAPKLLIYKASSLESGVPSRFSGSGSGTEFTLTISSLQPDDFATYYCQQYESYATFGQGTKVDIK

DENV1 PVP159 strain recombinant E protein ectodomain (residues 1-394) (domain or fragment)
stoichiometry N [1]: 2
Kd [2]: 0.712 nM

DENV1 WestPac74 strain recombinant E protein ectodomain (residues 1-394) (domain or fragment)
stoichiometry N [3]: 2

DENV2 NGC strain recombinant E protein ectodomain (residues 1-394) (domain or fragment)
stoichiometry N [4]: 2

DENV2 PVP94/07 strain recombinant E protein ectodomain (residues 1-394) (domain or fragment)
stoichiometry N [5]: 2

Fab 1C19
copies of Fab bound per virus particle (180 E proteins), Class I [6]: 60 copies
copies of Fab bound per virus particle (180 E proteins), Class II [6]: 60 copies
